In paper PMC2132940 one finds stoichiometry N (α-catenin per 5 CD7BB1), stoichiometry N (β-catenin per 5 CD7BB1) and stoichiometry N (β-catenin per GP2CAD1) data, which are given here for 2 molecules.

Experiment in all cases: co-IP
In assay [1] the target is CD7BB1 (human | canine) (UniProt P09564).
For assay [2] the target is unchanged. This is another data set of the same source.
The target of the next assay is GP2CAD1 (rat | canine).

Chain of UniProt P09564 (P09564 whole entry): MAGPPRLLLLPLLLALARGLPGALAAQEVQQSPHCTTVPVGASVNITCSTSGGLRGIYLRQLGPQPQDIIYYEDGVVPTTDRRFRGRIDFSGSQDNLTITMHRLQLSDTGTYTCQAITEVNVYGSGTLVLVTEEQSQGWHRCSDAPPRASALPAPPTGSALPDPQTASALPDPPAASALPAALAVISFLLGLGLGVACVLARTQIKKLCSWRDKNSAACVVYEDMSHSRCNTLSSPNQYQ

In turn, α-catenin (natural protein) registered a stoichiometry N (α-catenin per 5 CD7BB1) in the assay with CD7BB1 (human | canine) [1] of 0.8.

B1: β-catenin (natural protein)
chain: MATQADLMELDMAMEPDRKAAVSHWQQQSYLDSGIHSGATTTAPSLSGKGNPEEEDVDTTQVLYEWEQGFSQSFTQEQVADIDGQYAMTRAQRVRAAMFPETLDEGMQIPSTQFDAAHPTNVQRLAEPSQMLKHAVVNLINYQDDAELATRAIPELTKLLNDEDQVVVNKAAVMVHQLSKKEASRHAIMRSPQMVSAIVRTMQNTNDVETARCTAGTLHNLSHHREGLLAIFKSGGIPALVKMLGSPVDSVLFYAITTLHNLLLHQEGAKMAVRLAGGLQKMVALLNKTNVKFLAITTDCLQILAYGNQESKLIILASGGPQALVNIMRTYTYEKLLWTTSRVLKVLSVCSSNKPAIVEAGGMQALGLHLTDPSQRLVQNCLWTLRNLSDAATKQEGMEGLLGTLVQLLGSDDINVVTCAAGILSNLTCNNYKNKMMVCQVGGIEALVRTVLRAGDREDITEPAICALRHLTSRHQEAEMAQNAVRLHYGLPVVVKLLHPPSHWPLIKATVGLIRNLALCPANHAPLREQGAIPRLVQLLVRAHQDTQRRTSMGGTQQQFVEGVRMEEIVEGCTGALHILARDVHNRIVIRGLNTIPLFVQLLYSPIENIQRVAAGVLCELAQDKEAAEAIEAEGATAPLTELLHSRNEGVATYAAAVLFRMSEDKPQDYKKRLSVELTSSLFRTEPMAWNETADLGLDIGAQGEPLGYRQDDPSYRSFHSGGYGQDALGMDPMMEHEMGGHHPGADYPVDGLPDLGHAQDLMDGLPPGDSNQLAWFDTDL
The molecule B1 had a stoichiometry N (β-catenin per 5 CD7BB1) with CD7BB1 (human | canine) [2] of 1. In the assay with GP2CAD1 (rat | canine), this molecule registered a stoichiometry N (β-catenin per GP2CAD1) of 1.
